Common to all, as to test: Native-PAGE of mixed CL and Im proteins, 30 min at room temperature
One experiment deals with T1, Im8 protein (Escherichia coli, UniProt P09881 1-85).
T1 construct: Expressed from pET23a in E. coli BL21(DE3) and purified on nickel beads; a tag is not described
T1 sequence: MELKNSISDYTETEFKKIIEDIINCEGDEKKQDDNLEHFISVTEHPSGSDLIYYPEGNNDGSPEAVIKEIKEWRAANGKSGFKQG

A further experiment has as its target T2, Im7 protein (Escherichia coli, UniProt Q03708 1-87).
T2 construct: Expressed from pET23a in E. coli BL21(DE3) and purified on nickel beads; a tag is not described
T2 sequence: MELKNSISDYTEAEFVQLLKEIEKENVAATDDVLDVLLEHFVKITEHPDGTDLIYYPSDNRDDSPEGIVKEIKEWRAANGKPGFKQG

The target in the next experiment is T3, Im9 protein (Escherichia coli, UniProt P13479 1-86).
T3 construct: Expressed from pET23a in E. coli BL21(DE3) and purified on nickel beads; a tag is not described
T3 sequence (P13479 whole entry): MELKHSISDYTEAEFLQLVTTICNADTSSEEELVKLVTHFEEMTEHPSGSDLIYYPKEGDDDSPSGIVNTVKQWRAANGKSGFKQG

The target of the next experiment is T4, Im2 protein (Escherichia coli, UniProt P04482 1-86).
T4 construct: Expressed from pET23a in E. coli BL21(DE3) and purified on nickel beads; a tag is not described; also called immunity 2
T4 sequence: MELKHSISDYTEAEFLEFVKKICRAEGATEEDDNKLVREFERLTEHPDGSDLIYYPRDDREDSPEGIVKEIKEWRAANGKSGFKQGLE

B1: CL8 protein (other)
chain: MSKSNEPGKATGEGKPVGDKWLDDAGKDSGAPIPDRIADKLRDKEFENFDDFRETFWEEVSKDPELSKQFNPGNKKRLSQGLAPRARNKDTVGGRRSFELNHQKPIEQDGGVYDMDNLRITTPKRNIDIEG
notes: Expressed from pET23a in E. coli BL21(DE3) and purified on nickel beads; a tag is not described
Take B1: the binding result with Im8 protein is “binds”.

B2: CL7 protein (other)
chain: MSKSNEPGKATGEGKPVNNKWLNNAGKDLGSPVPDRIANKLRDKEFESFDDFRETFWEEVSKDPELSKQFSRNNNDRMKVGKAPKTRTQDVSGKRTSFELNHQKPIEQNGGVYDMDNISVVTPKRNIDIEG
notes: as for B1
For B2, the binding result with Im7 protein is listed as “binds”.

B3: CL9 protein (other)
chain: MSKSNEPGKATGEGKPVGDKWLDDAGKDSGAPIPDRIADKLRDKEFESFDDFRETVWEEVSKDPELSKNLNPSNKSSVSKGYSPFTPKNQQVGGRKVYELNHQKPIEQGGEVYDMDNIRVTTPKRNIDIEG
notes: as for B1
Regarding B3, the binding result with Im9 protein is “binds”.

B4: CL2 protein (other)
chain: MSKSNEPGKATGEGKPVGDKWLDDAGKDSGAPIPDRIADKLRDKEFENFDDFRETFWEEVSKDPDLSKQFKGSNKTNIQKGKAPFARKKDQVGGRERFELNHQKPIEQDGGVYDMNNIRVTTPKRNIDIEG
notes: as for B1
With B4, the binding result in the experiment with Im2 protein is reported as “binds”.

Values taken from US20230220439A1 (HUBEL UNIVERSITY, published 2023).
